# From US20180201654A1 (UNIVERSITY OF SOUTHERN CALIFORNIA, published 2018)
# T1: vIRF4 (Kaposi's-sarcoma-associated-herpesvirus vIRF4), full length wild type (Kaposi's-sarcoma-associated-herpesvirus …, UniProt Q2HR73 1-911)
# T1 sequence: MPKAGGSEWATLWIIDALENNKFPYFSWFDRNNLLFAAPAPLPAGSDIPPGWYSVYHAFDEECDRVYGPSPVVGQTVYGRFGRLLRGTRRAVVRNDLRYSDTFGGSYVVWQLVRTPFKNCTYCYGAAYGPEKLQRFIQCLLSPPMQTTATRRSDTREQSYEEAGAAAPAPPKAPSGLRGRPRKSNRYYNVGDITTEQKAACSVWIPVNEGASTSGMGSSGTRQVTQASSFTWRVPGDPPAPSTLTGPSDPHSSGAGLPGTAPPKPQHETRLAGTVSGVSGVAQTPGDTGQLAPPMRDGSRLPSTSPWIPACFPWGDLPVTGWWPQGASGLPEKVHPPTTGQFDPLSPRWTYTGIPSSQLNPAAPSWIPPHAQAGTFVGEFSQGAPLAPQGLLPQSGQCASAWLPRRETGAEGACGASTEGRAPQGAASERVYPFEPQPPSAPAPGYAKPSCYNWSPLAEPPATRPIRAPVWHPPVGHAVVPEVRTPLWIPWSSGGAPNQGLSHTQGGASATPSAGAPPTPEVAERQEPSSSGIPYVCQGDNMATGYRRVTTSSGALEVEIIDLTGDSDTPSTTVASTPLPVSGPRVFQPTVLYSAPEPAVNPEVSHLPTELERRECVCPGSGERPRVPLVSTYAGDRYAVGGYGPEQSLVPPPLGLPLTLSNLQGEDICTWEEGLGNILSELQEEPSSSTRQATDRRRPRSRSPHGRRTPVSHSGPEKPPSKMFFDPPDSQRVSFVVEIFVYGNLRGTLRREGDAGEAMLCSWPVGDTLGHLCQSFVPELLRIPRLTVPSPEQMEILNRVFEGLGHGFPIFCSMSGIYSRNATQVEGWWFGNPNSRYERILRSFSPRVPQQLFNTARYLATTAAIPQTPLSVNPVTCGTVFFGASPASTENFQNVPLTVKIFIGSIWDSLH
# B1: vIRF4Δ^202-256 mutant (other)
# chain: MPKAGGSEWATLWIIDALENNKFPYFSWFDRNNLLFAAPAPLPAGSDIPPGWYSVYHAFDEECDRVYGPSPVVGQTVYGRFGRLLRGTRRAVVRNDLRYSDTFGGSYVVWQLVRTPFKNCTYCYGAAYGPEKLQRFIQCLLSPPMQTTATRRSDTREQSYEEAGAAAPAPPKAPSGLRGRPRKSNRYYNVGDITTEQKAACLPGTAPPKPQHETRLAGTVSGVSGVAQTPGDTGQLAPPMRDGSRLPSTSPWIPACFPWGDLPVTGWWPQGASGLPEKVHPPTTGQFDPLSPRWTYTGIPSSQLNPAAPSWIPPHAQAGTFVGEFSQGAPLAPQGLLPQSGQCASAWLPRRETGAEGACGASTEGRAPQGAASERVYPFEPQPPSAPAPGYAKPSCYNWSPLAEPPATRPIRAPVWHPPVGHAVVPEVRTPLWIPWSSGGAPNQGLSHTQGGASATPSAGAPPTPEVAERQEPSSSGIPYVCQGDNMATGYRRVTTSSGALEVEIIDLTGDSDTPSTTVASTPLPVSGPRVFQPTVLYSAPEPAVNPEVSHLPTELERRECVCPGSGERPRVPLVSTYAGDRYAVGGYGPEQSLVPPPLGLPLTLSNLQGEDICTWEEGLGNILSELQEEPSSSTRQATDRRRPRSRSPHGRRTPVSHSGPEKPPSKMFFDPPDSQRVSFVVEIFVYGNLRGTLRREGDAGEAMLCSWPVGDTLGHLCQSFVPELLRIPRLTVPSPEQMEILNRVFEGLGHGFPIFCSMSGIYSRNATQVEGWWFGNPNSRYERILRSFSPRVPQQLFNTARYLATTAAIPQTPLSVNPVTCGTVFFGASPASTENFQNVPLTVKIFIGSIWDSLH
# B2: vIRF4^153-256 (other)
# chain: SDTREQSYEEAGAAAPAPPKAPSGLRGRPRKSNRYYNVGDITTEQKAACSVWIPVNEGASTSGMGSSGTRQVTQASSFTWRVPGDPPAPSTLTGPSDPHSSGAG
# B3: Flag/HAUSP 205-1108 (enzyme)
# single chain: WDSKKHTGYVGLKNQGATCYMNSLLQTLFFTNQLRKAVYMMPTEGDDSSKSVPLALQRVFYELQHSDKPVGTKKLTKSFGWETLDSFMQHDVQELCRVLLDNVENKMKGTCVEGTIPKLFRGKMVSYIQCKEVDYRSDRREDYYDIQLSIKGKKNIFESFVDYVAVEQLDGDNKYDAGEHGLQEAEKGVKFLTLPPVLHLQLMRFMYDPQTDQNIKINDRFEFPEQLPLDEFLQKTDPKDPANYILHAVLVHSGDNHGGHYVVYLNPKGDGKWCKFDDDVVSRCTKEEAIEHNYGGHDDDLSVRHCTNAYMLVYIRESKLSEVLQAVTDHDIPQQLVERLQEEKRIEAQKRKERQEAHLYMQVQIVAEDQFCGHQGNDMYDEEKVKYTVFKVLKNSSLAEFVQSLSQTMGFPQDQIRLWPMQARSNGTKRPAMLDNEADGNKTMIELSDNENPWTIFLETVDPELAASGATLPKFDKDHDVMLFLKMYDPKTRSLNYCGHIYTPISCKIRDLLPVMCDRAGFIQDTSLILYEEVKPNLTERIQDYDVSLDKALDELMDGDIIVFQKDDPENDNSELPTAKEYFRDLYHRVDVIFCDKTIPNDPGFVVTLSNRMNYFQVAKTVAQRLNTDPMLLQFFKSQGYRDGPGNPLRHNYEGTLRDLLQFFKPRQPKKLYYQQLKMKITDFENRRSFKCIWLNSQFREEEITLYPDKHGCVRDLLEECKKAVELGEKASGKLRLLEIVSYKIIGVHQEDELLECLSPATSRTFRIEEIPLDQVDIDKENEMLVTVAHFHKEVFGTFGIPFLLRIHQGEHFREVMKRIQSLLDIQEKEFEKFKFAIVMMGRHQYINEDEYEVNLKDFEPQPGNMSHPRPWLGLDHFNKAPKRSRYTYLEKAIKIHN
# notes: N-terminal deletion fragment without the TRAF domain
# What was measured:
# [1] = target: T2, HAUSP (Herpes virus-associated ubiquitin-specific protease), full length (human, UniProt Q93009 1-1102); assay: co-transfection in 293T cells (Flag-HAUSP with V5-vIRF4 constructs)
# T2 construct: also called USP7; Flag-HAUSP
# [2] = target: T3, HAUSP TRAF domain (HAUSP^62-205) (human, UniProt Q93009 62-205); assay: ITC
# T3 construct: also called TRAF-like domain of HAUSP
# [3] = target: T3, HAUSP TRAF domain (HAUSP^62-205); assay: ITC, titration against the HAUSP TRAF domain, 20 C
# [4] = target: T1, vIRF4 …; assay: co-immunoprecipitation from transfected 293T cells, IP: V5, IB: Flag
# T3 sequence (Q93009 62-205): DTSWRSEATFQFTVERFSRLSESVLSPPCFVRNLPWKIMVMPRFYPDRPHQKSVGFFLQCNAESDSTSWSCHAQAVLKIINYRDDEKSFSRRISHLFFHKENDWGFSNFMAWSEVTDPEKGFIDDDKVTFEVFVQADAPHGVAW
binder,measurement,setting,value
B1,binding result,[1],no binding
B2,fold higher affinity (against vIRF4^153-216 and vIRF4^202-216),[2],7 fold
same,Ka,[3],1.32e+07 M⁻¹
same,Kd,[3],76 nM
same,TΔS,[3],-10.1 kcal/mol
same,n,[3],1.13
same,ΔG,[3],-7.64 kcal/mol
same,ΔH,[3],-17.7 kcal/mol
B3,binding result,[4],no binding
